For data set [1], the target named is KpDyP variant D143A (Klebsiella pneumoniae). Put plainly: SEC-MALS; HPLC-SEC combined with multiangle light scattering; data not shown; conditions not given. On the technique in general: In gel filtration, larger molecules generally elute earlier.
A further data set addresses Asp143 (UniProt position 143, LSGFVDGTENP). Nature of the data set: kinetics. Particulars: 25 °C; 2 µM enzyme in 5 mM phosphate citrate buffer, pH 7.0, mixed with H2O2 in 100 mM phosphate citrate buffer, pH 3.0-8.0, or 100 mM glycine NaOH buffer, pH 8.0-10.0; ferric high-spin resting enzyme, folded, reacting with H2O2.
Data set [2] addresses KpDyP double variant D143A/R232A (Klebsiella pneumoniae). Put plainly: SEC-MALS; HPLC-SEC combined with multiangle light scattering; data not shown; conditions not given.
The target in data set [3] is KpDyP variant R232A (Klebsiella pneumoniae). The data set is described as above.
Data set [4] concerns the molecule itself. The data set is described as above.

Regarding KpDyP variant D143A (enzyme), the stoichiometry N – broadly, a count of units in the complex or per binding partner – in data set [1] turned out to be 2.
“B-class dye-decolorizing peroxidase (KpDyP) (Klebsiella pneumoniae)”: in the data set with Asp143, the pKa entry is given as “far below 4.0”.
Regarding “KpDyP double variant D143A/R232A (enzyme)”, the stoichiometry N in data set [2] worked out at 2.
With KpDyP variant R232A (enzyme), the stoichiometry N in data set [3] is 2.

B1: WT B-class dye-decolorizing peroxidase from Klebsiella pneumoniae (KpDyP) (enzyme, UniProt A0A0W8ATM9 1-299, looked up)
chain: MSQVQSGILPEHCRAAIWIEANLKGDVNALREASKIFVDNVATFQAKFPDAKLGAVVAFGNNVWRQLSGGEGADELKDFPVYGKGLAPSTQYDLLIHILSARHEVNFSVAQAALAAFGDAIDVKEEIHGFRWVEERDLSGFVDGTENPAGEETRREVAVIKDGVDAGGSYVFVQRWEHNLKQLNRMSVPDQEMMIGRTKDANEEIDGDERPVTSHLSRVDLKEDGKGLKIVRQSLPYGTASGTHGLYFCAYCARLYNIEQQLLSMFGDTDGKRDAMLRFTKPVTGGYYFAPSLERIQAL
notes: B-class dye-decolorizing peroxidase (KpDyP), Klebsiella pneumoniae; codon-optimized DNA cloned into pGEX-6P1 with primers that run from the ATG start to the stop codon; about 35 kDa per subunit; One heme b per subunit; also called WT KpDyP; source: E. coli BL21 (DE3) pLysS, purified (GSTrap, on-column HRV 3C cleavage, SEC)
As for B1, the “stoichiometry N” value in data set [4] was 2.

The record behind these values is PMC6153280, “Roles of distal aspartate and arginine of B-class dye-decolorizing peroxidase in heterolytic hydrogen peroxide cleavage” (The Journal of Biological Chemistry, 2018).
